Experimental data: patent publication US20180355049A1 (CANTARGIA, published 2018)

T1: human IL1RAP on cells (KU812, LAMA-84, HEK-Blue IL-33/IL-1β cells) (human, UniProt Q9NPH3 21-570)
T1 sequence (looked up): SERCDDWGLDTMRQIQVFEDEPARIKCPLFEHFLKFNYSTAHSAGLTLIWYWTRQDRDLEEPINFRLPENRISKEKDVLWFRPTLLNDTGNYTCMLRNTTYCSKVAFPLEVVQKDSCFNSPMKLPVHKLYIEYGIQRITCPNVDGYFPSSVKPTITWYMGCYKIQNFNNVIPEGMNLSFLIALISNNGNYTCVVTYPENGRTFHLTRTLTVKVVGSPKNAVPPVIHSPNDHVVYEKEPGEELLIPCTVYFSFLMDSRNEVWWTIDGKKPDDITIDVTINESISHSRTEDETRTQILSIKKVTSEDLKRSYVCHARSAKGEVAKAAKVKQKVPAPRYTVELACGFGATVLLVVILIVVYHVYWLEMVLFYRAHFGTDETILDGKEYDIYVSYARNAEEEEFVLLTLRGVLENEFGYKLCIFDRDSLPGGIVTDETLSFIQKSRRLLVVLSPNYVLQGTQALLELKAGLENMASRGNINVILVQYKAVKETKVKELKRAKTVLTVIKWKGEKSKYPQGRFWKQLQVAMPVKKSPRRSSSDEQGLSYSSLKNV

T2: IL1RAP protein (analyte of the Biacore study, Example A(i)) (human, UniProt Q9NPH3 21-367, limits assumed)
T2 construct: also called the analyte; human IL1RAP
T2 sequence (looked up): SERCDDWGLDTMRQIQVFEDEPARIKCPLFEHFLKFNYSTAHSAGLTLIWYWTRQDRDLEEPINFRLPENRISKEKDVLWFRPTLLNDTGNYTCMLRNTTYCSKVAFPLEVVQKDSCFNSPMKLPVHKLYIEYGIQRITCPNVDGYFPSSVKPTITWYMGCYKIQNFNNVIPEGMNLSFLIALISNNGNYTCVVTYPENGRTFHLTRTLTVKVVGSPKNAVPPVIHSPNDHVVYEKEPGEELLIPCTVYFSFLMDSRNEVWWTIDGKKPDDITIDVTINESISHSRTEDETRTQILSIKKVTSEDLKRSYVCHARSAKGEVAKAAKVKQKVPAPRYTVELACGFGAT

B1: CAN03 (antibody, V domains shown)
VH: DVKLVESGGGLVKPGGSLKLSCAASGFTFSIYTMSWVRQTPEKRLEWVATISIGGSYINYPDSVKGRFTISRDNAKNTLYLQMSSLKSEDTAIYYCSREVDGSYAMDYWGQGTSVTVSS
VL: DILLTQSPAILSVSPGERVSFSCRASQSIGTSIHWYQRRTNGSPRLLIKSASESISGIPSRFSGSGSGTDFTLSINSVESEDIADYYCQQSNSWPTTFGAGTKLELKR
notes: Murine-derived monoclonal anti-IL1RAP antibody; also called CAN03-AF488 (AlexaFluor488-labelled form)
B2: CAN01 (antibody, V domains shown)
VH: QVQLQQSGTELMKPGASVKISCKATGYTVSSYWIDWVKQTPGHGLEWIGEILPGSAINNYNEKFKGKATFTADTSSNTAYMQLSSLTSEDSAVYYCASGDYFDSTFVYYWGQGTTLTVSS
VL: DVLMTQTPLSLPVSLGDQASISCRSSQSIVHSNGNTYLEWYLQKPGQSPKLLIYKVSNRFSGVPDRFSGSGSGTDFTLKISRVEAEDLGVYYCFQGSHVPRTFGGGTKLEIKR
notes: Murine-derived monoclonal anti-IL1RAP antibody; also called CAN01-AF488 (AlexaFluor488-labelled form)

Tests used:
[1] = molecular target: T1, human IL1RAP on cells (KU812, LAMA-84, …); assay: cell-based or functional assay
[2] = molecular target: T1, human IL1RAP on cells (KU812, LAMA-84, …); assay: cell-based or functional assay; remark: listed apart in the source
[3] = molecular target: T2, IL1RAP protein (analyte of the Biacore …); assay: SPR, BIAcore T200, antibody captured by anti-mouse IgG, analyte 100 nM, 25 C
Protocol: Goat anti-mouse IgG was immobilized on a CM5 chip according to the technical manual of capture kit and standard operation principle of BIAcore T200 (Biacore Life Sciences, GE Healthcare Europe GmbH, Uppsala, Sweden).
The capture molecule surface was regenerated after each binding cycle using the manufacturer's recommended conditions.
After five cycles of start-up, each antibody (100 nM) was injected at a flow rate of 30 μl/min, for 120 s, at the start of the cycle; then the analyte (100 nM) was injected at a flow rate of 30 μl/min, for 120 s, followed by monitoring the dissociation phase for 300 s.

Binder	EC50, murine IL-1 alpha-stimulated HEK-Blue IL-33/IL-1β cells [1] [nM]	EC50, murine IL-1 beta-stimulated HEK-Blue IL-33/IL-1β cells [1] [nM]	EC50, murine IL-33-stimulated HEK-Blue IL-33/IL-1β cells [1] [nM]	IC50, murine IL-1 alpha-stimulated HEK-Blue IL-33/IL-1β cells [1] [nM]	IC50, murine IL-1 beta-stimulated HEK-Blue IL-33/IL-1β cells [1] [nM]	IC50, murine IL-33-stimulated HEK-Blue IL-33/IL-1β cells [1] [nM]	EC50, human IL-1α-stimulated HEK-Blue IL-33/IL-1β cells [2] [nM]	EC50, human IL-1β-stimulated HEK-Blue IL-33/IL-1β cells [2] [nM]	EC50, human IL-33-stimulated HEK-Blue IL-33/IL-1β cells [2] [nM]	IC50, human IL-1α-stimulated HEK-Blue IL-33/IL-1β cells [2] [nM]	IC50, human IL-1β-stimulated HEK-Blue IL-33/IL-1β cells [2] [nM]	IC50, human IL-33-stimulated HEK-Blue IL-33/IL-1β cells [2] [nM]	Kd [3] [nM]	koff [3] [s⁻¹]	kon [3] [M⁻¹ s⁻¹]
B1	2.9	1.56	4.01	5	1.59	4.12	37.6	10.5	30.5	37.3	10.1	30.4	0.321	7.25e-05	226000
B2	84.2	> 100	> 100	81.7	50	> 100	–	–	–	–	–	–	1.43	0.000335	234000
